The values below come from patent US10793631B2, “Human PAC1 antibodies” (AMGEN INC., priority 2013, dated 2020).

What all share (type): cell-based
The target in one assay is T1, VPAC1 (Homo sapiens, UniProt P32241).
T1 sequence (P32241 31-457): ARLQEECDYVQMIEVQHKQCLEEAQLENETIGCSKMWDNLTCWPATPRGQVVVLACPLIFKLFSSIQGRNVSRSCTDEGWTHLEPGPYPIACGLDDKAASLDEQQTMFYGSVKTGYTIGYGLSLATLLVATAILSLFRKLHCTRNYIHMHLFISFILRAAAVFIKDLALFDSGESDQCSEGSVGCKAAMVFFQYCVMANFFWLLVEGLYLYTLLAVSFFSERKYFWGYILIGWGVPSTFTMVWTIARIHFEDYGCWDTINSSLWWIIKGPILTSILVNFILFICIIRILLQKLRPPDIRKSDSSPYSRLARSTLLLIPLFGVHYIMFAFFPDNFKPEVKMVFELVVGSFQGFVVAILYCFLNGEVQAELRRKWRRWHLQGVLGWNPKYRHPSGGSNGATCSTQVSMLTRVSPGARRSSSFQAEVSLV
In words: Activity and selectivity of PAC1 agonists on VPAC1. Particulars: receptor agonist on VPAC1.

In another assay the target is T2, PAC1 (Homo sapiens, UniProt P41586).
T2 sequence (P41586 21-468): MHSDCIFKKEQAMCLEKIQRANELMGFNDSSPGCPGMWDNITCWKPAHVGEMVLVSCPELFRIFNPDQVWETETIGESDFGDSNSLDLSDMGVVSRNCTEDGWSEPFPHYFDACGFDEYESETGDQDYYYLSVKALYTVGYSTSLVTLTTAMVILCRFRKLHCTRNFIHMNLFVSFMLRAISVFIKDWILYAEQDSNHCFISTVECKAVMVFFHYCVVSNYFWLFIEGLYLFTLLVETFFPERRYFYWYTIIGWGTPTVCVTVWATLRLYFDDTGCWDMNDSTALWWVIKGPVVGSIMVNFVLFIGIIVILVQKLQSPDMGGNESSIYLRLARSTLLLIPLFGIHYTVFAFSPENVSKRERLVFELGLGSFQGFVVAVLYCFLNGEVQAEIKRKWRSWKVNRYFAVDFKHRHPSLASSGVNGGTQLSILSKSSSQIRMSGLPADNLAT
As to the kind of experiment: Activity and selectivity of PAC1 agonists on PAC1.

A further assay deals with T3, VPAC2 (Homo sapiens, UniProt P41587).
T3 sequence (P41587 24-438): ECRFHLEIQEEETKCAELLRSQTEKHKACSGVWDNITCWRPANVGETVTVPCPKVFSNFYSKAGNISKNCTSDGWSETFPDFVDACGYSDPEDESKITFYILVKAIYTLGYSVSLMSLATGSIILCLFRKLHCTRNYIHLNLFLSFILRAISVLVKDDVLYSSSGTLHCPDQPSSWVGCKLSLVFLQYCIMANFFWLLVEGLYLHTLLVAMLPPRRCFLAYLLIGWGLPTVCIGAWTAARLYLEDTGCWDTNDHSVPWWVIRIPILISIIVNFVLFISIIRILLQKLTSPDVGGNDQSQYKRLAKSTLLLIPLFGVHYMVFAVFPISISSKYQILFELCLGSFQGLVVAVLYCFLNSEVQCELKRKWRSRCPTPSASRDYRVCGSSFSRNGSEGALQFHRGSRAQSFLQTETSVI
In words: Activity and selectivity of PAC1 agonists on VPAC2. The following applies: receptor agonist on VPAC2.

A value given as a limit tells only on which side of the number the result lay.

As usually defined, the EC50 is the midpoint of the concentration-response curve. Low values mean higher potency in that assay, high ones lower potency in that assay.

For “Maxadilan: 65 amino acid peptide originally isolated from the sand-fly; PAC1-selective agonist”, the EC50 is > 1000 nM with VPAC1, 0.06 nM in the assay with PAC1 (receptor agonist on PAC1) and > 1000 nM with VPAC2. For the same substance, in the assay with PAC1 (PAC1 versus VPAC1 and VPAC2), the “agonist activity and selectivity” value was “highly-selective for PAC1 versus VPAC1 and VPAC2”.
